Molecular target: P. falciparum circumsporozoite protein (CSP) (Plasmodium falciparum) (UniProt P19597)
Assay: cell-based or functional assay

Chain of UniProt P19597 (P19597 19-374): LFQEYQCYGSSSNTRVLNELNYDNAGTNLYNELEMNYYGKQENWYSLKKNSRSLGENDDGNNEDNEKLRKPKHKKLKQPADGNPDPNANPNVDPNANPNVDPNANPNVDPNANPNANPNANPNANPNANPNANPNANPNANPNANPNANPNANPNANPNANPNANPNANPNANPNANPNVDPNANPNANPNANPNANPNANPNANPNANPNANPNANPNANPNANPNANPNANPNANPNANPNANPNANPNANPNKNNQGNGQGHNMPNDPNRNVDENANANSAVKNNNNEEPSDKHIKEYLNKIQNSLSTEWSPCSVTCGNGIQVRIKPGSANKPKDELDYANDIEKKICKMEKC

Question: With monoclonal antibody 2A10 as the substance, how does the in vitro liver invasion assay: parasite burden in liver cells against the pre-immune control serum read?
Answer: The in vitro liver invasion assay: parasite burden in liver cells against the pre-immune control serum was over 2 log.
